Measured values taken from the RNAGym collection of RNA variant scans (doi:10.7554/elife.80360).

B1: HDV Ribozyme (parent)
chain: GGCCGGCAUGGUCCCAGCCUCCUCGCUGGCGCCGGCUGGGCAACAUUCCGAGGGGACCGUCCCCUCGGUAAUGGCGAAUGGGACCCA

Variants of: B1
Assay: self-cleavage, relative activity (ratio to wild type); higher = more cleavage; co-transcriptional

Variant	self-cleavage
C24A C30A	0.237
G1A G54U	0.0475
U27C G31A	0.251
C15U A43U	0.284
G68C A83C	0.332
G5U C48U	0.346
U12C A51C	0.378
C18U G80A	0.196
C57A A70U	1.25
G1C A51U	0.222
G11U G52U	0.561
G28U C75U	0.136
G28U C75G	0.0302
C22U A42U	0.138
G39U C64G	0.845
G10A C18A	0.0567
C24U U65A	0.469
C15U G59U	0.895
U23G C64G	0.95
G82C A87U	0.247
G52A C58U	0.888
G29U U72G	0
C33A U72G	0.122
C4G G28C	0.101

Variant	self-cleavage
G35U G73A	0.0911
G50A G68A	0.957
C36U G39U	0.245
U9A A16U	1.19
G52C U60A	1.02
A43G C66G	0.404
U23G G68C	0.482
C3G G55U	0.821
G10A C85A	1.09
C48G A78G	0.86
G2A C86G	0.0755
A56C A70G	1.05
G10U C84G	0.54
G34A U60C	0.258
C7U C63U	0.918
G2U C3G	0.0222
G25C C41G	0
C19G C36A	0.0277
G5A G39U	0.101
G38C U60A	0.38
U9C G28A	0.101
U23G G25C	0
C36G C44A	0.128
G17U A87U	0.548

Variant	self-cleavage
G28C G31C	0
C61G C84U	0.544
G40U U69G	0.727
G50C G68C	0.249
A8U C84A	0.95
G17C G74A	0.089
U20C A51G	0
G5C G25U	0.0475
U47C U79G	0.415
G38U C44U	0.126
U12A G68C	0.0755
A45U G80A	0.205
G55U C64G	0.781
C14U A87U	1.08
C14U A87C	1.12
A16C G81C	0.346
C15U G35C	0.0723
G17U C85G	0.554
G2C G40A	0.0773
G2C G40U	0.0409
G76C G80U	0.256
U12C G53A	0.369
C24U A42U	0.17
C19G C75U	0.161

Variant	self-cleavage
G34A G59U	0.266
G6U A78G	0.229
G40U C49A	0.787
G55A G74U	0.541
C32U G39U	0.486
U20A G31A	0.155
C19U U79A	0.0396
C49A G59A	0.938
U23C G39A	0.519
C4U C26G	0.72
G34A C75A	0.107
C21G U72C	0.0426
G68C G81U	0.123
G6A G40U	0.911
C3A C22U	0.15
C22A G40U	0.0978
G28C C64G	0.0791
A56U C57A	0.966
C21A C44U	0.0346
G68C G80A	0.421
U9A C32G	0.0489
U23G G34A	0.0811
U9C U12G	1.07
C24A A70G	0.804

Variant	self-cleavage
C3G G73C	0.272
C36A C63A	0.237
G11A C66G	0.424
C14G U60A	0.831
C30A C58U	0.318
G25U A78U	0.0831
A8C G35A	0.142
G1C C18G	0
C64G A87G	0.853
C13G A42U	0.0811
A42U C75A	0.0405
U23G G31C	0.178
G11U C18A	0.0674
G5C G31C	0.0519
C24U C26U	0.867
G6A C84A	0.431
G31C C75G	0.0396
C4A C44G	0.0665
C62G U69G	0.804
C15A C21A	0
G53A C61G	0.751
C3G C57A	0.802
G68A A78C	0.0733
G38U C84G	0.115

Variant	self-cleavage
C36G U79G	0.0437
G34A U37C	0.102
G1U G67C	0.305
G38U G50C	0.225
G59C C62G	0.6
C58G C66G	0.95
G10U C58U	0.982
G1A G80A	0.0455
U20A C63G	0
U12G A71U	0.791
A8G G50C	1.17
G6U C86A	0.574
C26G G40C	0.19
U46C A56G	0.643
C21U G34C	0
G40C G55U	0.205
G17C G76A	0.446
C4G C22G	0
G68A G82A	0.287
A16G G80U	0.208
C3U G25U	0.0175
C33U A83U	0.415
U12C C48G	0.185
U12C C48A	0.762

Variant	self-cleavage
C3G C44A	0.312
G2C C21A	0
U46A C75U	0.0665
C13G G39C	0.0462
C3G C75A	0.119
U20C A45U	0.166
G80A G81A	0.185
G39A G73A	0.0801
G39A G73U	0.0845
G54A U72G	0.453
G10C G28C	0.107
G10C G28U	0.148
A71U C86U	1.02
C18U C58U	0.554
G53A G76A	1.16
G53C C85A	0.955
C21A U79C	0.111
G5U A70G	0.375
C24U C36G	0.141
C14A A70C	0.467
G34C G81A	0.16
C26G C75A	0.266
A16G G82A	0.453
G38C G40U	0.0332

Variant	self-cleavage
C18A A77U	0
C22U C49G	0.684
G38C A83G	0.201
C13U U27A	1.29
C62A A70G	0.682
C24U G28A	0.172
C15A G80C	0.222
C15U C62G	0.851
G54U A77U	0.688
C41A A43G	0.808
C19U C32G	0.0482
C3G A71G	0.631
U79G G81C	0.26
A70C G80U	0.217
G10C G73U	0.177
C64A A87G	0.902
C58U C61G	0.967
G50U C63G	0.332
G39C C49U	0.166
C41A A77C	0.172
C22A C66G	0.373
C64A C86U	0.886
U9G C66A	0.594
C4A A70G	0.189

Variant	self-cleavage
G34A A77U	0.0339
U65A G81C	0.502
C48U G53C	0.997
U20G G81C	0.095
C58U C62G	0.812
G10U C19G	0.1
C19U U72G	0.0396
G67A G76A	0.975
U37G C57A	0.0978
G1C U23C	0.0831
G50A U69C	0.688
G2A A8C	0.106
G29C	0.1
G39A C63G	0.352
G76U U79A	0.984
A8C G38U	0.0875
C22U G40C	0.166
G17U G52U	0.517
G25U C26U	0.0415
G25U C26G	0.816
A8U A16U	0.962
G74A A83U	0.272
G52C G82A	0.712
G5U C64U	0.499

Variant	self-cleavage
U9G G29U	0
U23C G34C	0.172
A8G G35C	0.0426
C30U G81A	0.155
C14A G74C	0.185
U20G A43G	0.104
U72A G82U	0.225
C24G C61G	0.0264
G6C C61U	0.285
C3G U46G	0.248
C41A G53U	0.969
C61A C86A	0.897
A45C C85G	0.609
C19A C85G	0.149
C22U C84G	0.291
G10U G80U	0.0944
G11C A42C	0.0346
U9A C66G	1.1
G11C C84U	0.18
G38U C63U	0.24
C3U U65G	0.682
U9G C63A	0.935
U69A G74A	0.511
C48G U79A	0.911

Variant	self-cleavage
C36A C75U	0.0963
G6A G34A	0.0287
G17A C30A	0.651
U65C G81C	0.227
G10C G29C	0.155
G17C U47A	0
A16U U69C	0.643
C21A G74U	0.0712
C4U C24U	0.237
C14A A77U	0.237
C3G G10C	0.151
G17C A71U	0.32
C3U G53C	0.688
U20C G35U	0.0978
U65A A78G	0.831
C7A A56U	0.617
C44G A77U	0.0978
G31U G34A	0.0804
A8C U72C	0.185
C14U A42G	0.959
A43C C61A	0.306
C24U A87C	0.739
G10A A56C	0.78
C15A U79A	0.519

Variant	self-cleavage
G17C A83G	0.131
U9G G53U	1.1
G5C G10U	0.0489
A8G G55A	0.655
U23A U65A	0.778
C32U G53A	1.01
C36A A51G	0.269
G31U U79C	0.107
A42G G52U	0.501
C3G C13U	0.229
A71C G74U	0.789
G39U G76U	0.819
G39A G67A	0.453
C36U U46A	0.462
C24A G28C	0.0773
G28U G68A	0.182
C30U U79C	0.148
C32G C41A	0.0354
G74A C84G	0.168
C33U C62A	0.583
G6C C33U	0.155
A51C G67C	0.886
U37A C66U	0.314
G34U U37A	0.158

Variant	self-cleavage
A43G A71U	0.95
G53C G59A	0.95
C7U G25A	0.212
U23G G82U	0.17
C15A C48G	0.475
U23C G68U	0.897
G38U C62A	0.317
G2A C62U	0.0886
U23A G74C	0.323
C21A C41G	0
C22U C58A	0.914
G50C A83C	0.317
C24U C58A	0.789
A83C C84U	0.582
C24A C41G	0.536
A16U C57A	1.17
G10U G73A	0.235
G17U A70U	0.574
G6C C85G	0.375
G17A C49U	0.853
G6A G31U	0.219
G5C U37G	0.111
C30G G76A	0.0554
C18G C85A	0.0554

Variant	self-cleavage
G39A G55U	0.356
C32G C58U	0.0234
C3G C30A	0.0639
U37G G40U	0.203
G35A A56C	0.346
G38U C85U	0.269
C18A A71U	0
C30U C61A	0.718
U47G C64U	1.28
C63G G80A	0.366
U60G A77G	1.09
U12G U46C	1.02
C66U G74A	0.451
G10C G25A	0.308
C18G G29C	0.939
G2U C33A	0.043
C62U A77C	0.491
A8C C66A	0.831
A71G G74C	0.383
U20G C58G	0.266
G39A C75A	0.0755
C18A U47A	0.0692
